This note sets out measurements from patent US20210180049A1 (CHUGAI SEIYAKU KABUSHIKI KAISHA, priority 2013, published 2021).

The nature of series [1]: SPR binding of SMB0002 to AMP. The settings on record: Biacore; read-out: KD of SMB0002 toward AMP. How it is done: Binding of SMB0002 was assessed at AMP concentrations of 500, 250 (duplicate), 125, 62.5, 31.25, 15.625, and 7.8125 μM.
(Surface plasmon resonance follows binding to a sensor surface in real time, without labels.)

A short description of series [2]: SPR (Biacore T200) binding of SMB0002 to ATP. To be noted: Biacore T200, 25° C., antibody captured on protein A/G; read-out: KD of SMB0002 toward ATP. How it is done:
Biacore T200 (GE Healthcare) was used to analyze interaction in the antigen-antibody reaction with ATP. The antibody of interest was captured onto protein A/G (Invitrogen) immobilized in an appropriate amount onto Sensor chip CM5 (GE Healthcare) by the amine coupling method, and ATP which is the antigen was allowed to interact. The running buffer used was 10 mmol/L ACES, 150 mmol/L NaCl, 0.05% (w/v) Tween 20, pH 7.4. All measurements were carried out at 25° C. The antigen was diluted with running buffer.
(§1) Then, running buffer was run at a flow rate of 20 μL/min for three minutes and dissociation of the antigen from the antibody was observed. Next, 10 mmol/L glycine-HCl, pH 1.5, was injected at a flow rate of 30 μL/min for 30 seconds to regenerate the sensor chip. Kinetic parameters such as the association rate constant ka (1/Ms) and the dissociation rate constant kd (l/s) were calculated based on the sensorgrams obtained by the measurements. The dissociation constant KD (M) was calculated from these constants. Each parameter was calculated using the Biacore T200 Evaluation Software (GE Healthcare).

Series [3] in a line: SPR (Biacore T200) binding of SMB0002 to adenosine. To be noted: Biacore T200, 25° C., antibody captured on protein A; read-out: KD of SMB0002 toward adenosine. How it is done: Using Biacore T200 (GE Healthcare), the antibody SMB0002 obtained by the B cell cloning method was analyzed for its interaction with adenosine in antigen-antibody reaction. Sensor chip CM5 (GE Healthcare) was immobilized with an appropriate amount of protein A (Invitrogen) by amine coupling. Antibodies of interest were captured by the chip to allow interaction to adenosine as an antigen. The running buffer used was 50 mmol/1 TrisHCl, 150 mmol/1 NaCl, 0.02% (w/v) Tween20, pH 7.6. All measurements were carried out at 25° C. The antigens were diluted using the running buffer.
as §1, with “of 30” for “of 20”, “for four” for “for three”, “was loaded” for “was injected”

A short description of series [4]: competitive ELISA of 2′-Adenosine-PEG-Biotin-binding clones with adenosine and ATP. To be noted: 50 nM 2′-Adenosine-PEG-Biotin with 500 μM adenosine or ATP; absorbance at 405 nm. How it is done:
To immobilize the antibodies, the plate was allowed to stand for one hour or more at room temperature. After the antibodies diluted with PBS were removed from each well, TBS containing 1% BSA was added thereto and the plate was allowed to stand for one hour or more. Then, the TBS (pH 7.4) containing 1% BSA was removed from the plate. 2′-Adenosine-PEG-Biotin diluted to 50 nM with PBS, a mixture of 2′-Adenosine-PEG-Biotin and adenosine diluted to 50 nM and 500 μM respectively with PBS, a mixture of 2′-Adenosine-PEG-Biotin and ATP diluted to 50 nM and 500 μM respectively with PBS, or PBS alone was added to the plate. The plate was allowed to stand at room temperature for one hour, and then washed three times with 80 μl of PBS containing 0.05% Tween-20. Then, Streptavidin-HRP (Thermo fisher scientific) diluted 20000 times with PBS was added to each well, and the plate was allowed to stand for one hour or more at room temperature. After the plate was washed three times with 80 μl of PBS containing 0.05% Tween-20, a chromogenic substrate (ABTS peroxidase substrate) was added to each well. After the plate was incubated for one hour, color development in the solution of each well was assessed by measuring absorbance at 405 nm using SpectraMax from Molecular Device.
(An ELISA detects its analyte on a solid surface through an enzyme-linked reagent.)

Series [5] can be described thus: SPR binding of SMB0002 to ADP. To be noted: Biacore, NaCl concentration 600 mM; read-out: KD of SMB0002 toward ADP. How it is done: Binding to ADP was assessed by a method similar to the measurement method using Biacore described in Example 3-2, except that the NaCl concentration was changed to 600 mM. Binding of SMB0002 was assessed at ADP concentrations of 2000, 1000 (duplicate), 500, 250, 250, 125, 62.5, and 31.3 μM.

Series [6] in a line: SPR (Biacore T200) binding of D12 to ADP. The settings on record: Biacore T200, 15° C., 500 mM NaCl. How it is done:
(§2) Sensor chip CM5 or CM4 (GE Healthcare) was immobilized with an appropriate amount of protein A (Life technologies) by amine coupling. The antibody of interest was captured by the chip to allow interaction with ATP (Wako), adenosine (Wako), or ADP (adenosine diphosphate) (Wako) as an antigen. The running buffer used was 50 mM Tris-HCl (Takara, T903), 500 mM NaCl, 0.01% (w/v) Tween20. The antigen was allowed to interact for 30 seconds at a flow rate of 30 μl/min, and was dissociated for 30 seconds. The interaction with the antigen was assessed at 15° C. The antigen was diluted using the same running buffer.
(§3) The dissociation constant KD (M) was calculated based on the association rate constant ka (1/Ms) and dissociation rate constant kd (l/s), both of which are kinetic parameters calculated from the sensorgram obtained by the measurement. Alternatively, the dissociation constant KD (M) was calculated using steady state analysis. Each parameter was calculated using the Biacore T200 Evaluation Software (GE Healthcare).

Series [7] is described as follows: phage ELISA for binding to 5′-adenosine-PEG-biotin. How it is done:
(§4) Next, for the purpose of confirming to which antigen of 2′-adenosine-PEG-biotin, 5′-adenosine-PEG-biotin, and ATP-PEG-biotin these clones have binding ability, the purified phages diluted with TBS were subjected to ELISA by the following procedure. A StreptaWell 96 microtiter plate (Roche) was coated at room temperature for one hour with 100 μl of TBS containing a biotin-labeled antigen (2′-adenosine-PEG-biotin, 5′-adenosine-PEG-biotin, or ATP-PEG-biotin). After the antigens were removed by washing each well of the plate with TBST, the wells were blocked with 250 μl of 2% skim milk/TBS for one hour or more. 2% skim milk/TBS was removed, and then the prepared, purified phages were added to each well. The plate was allowed to stand at room temperature for one hour to allow binding of antibody-displaying phages to antigens in each well. After TBST wash, a HRP-conjugated anti-M13 antibody (Amersham Pharmacia Biotech) diluted with TBS was added to each well. The plate was incubated for one hour. Following TBST wash, the TMB single solution (ZYMED) was added to each well. The chromogenic reaction in the solution of each well was terminated by adding sulfuric acid. Then, the developed color was assessed by measuring absorbance at 450 nm.

The nature of series [8]: phage ELISA for binding to ATP-PEG-biotin. How it is done: as §4
A short description of series [9]: SPR (Biacore T200) binding of D12 and variants to adenosine. The settings on record: Biacore T200, 15° C., corrected with 20 μmo1/1 ADP, Formula 2. How it is done:
as §2, §3
To calculate the KD for adenosine, the binding response was assessed at various concentrations of adenosine in the presence or absence of 20 μmo1/1 ADP. In addition, the binding response was separately assessed in the presence of 20 μmo1/1 ADP. […]

Series [10] can be described thus: competitive phage ELISA with ATP. The format is binding. To be noted: ATP from equal amount up to 10000 times that of the antigen. How it is done:
ATNLSA1-4_D12 and PF1 were each diluted with TBS and subjected to ELISA by the following procedure.
A StreptaWell 96 microtiter plate (Roche) was coated at room temperature for one hour with 100 μl of TBS containing biotin-labeled antigens (a mixture of 5′-adenosine-PEG-biotin and ATP-PEG-biotin). After the antigens were removed by washing each well of the plate with TBST, the wells were blocked with 250 μl of 2% skim milk/TBS for one hour or more. 2% skim milk/TBS was removed, and then the prepared, purified phages were added to each well. The plate was allowed to stand at room temperature for one hour to allow binding of the antibody-displaying phages to the antigens in each well. […] For the competition of the immobilized antigen with ATP, the plate was allowed to stand at room temperature for one hour. Then, after TBST wash, an HRP-conjugated anti-M13 antibody (Amersham Pharmacia Biotech) diluted with TBS was added to each well. The plate was incubated for one hour. Following TBST wash, the TMB single solution (ZYMED) was added to each well. The chromogenic reaction in the solution of each well was terminated by adding sulfuric acid. Then, the developed color was assessed by measuring absorbance at 450 nm.

Series [11] can be described thus: Tm measurement by DSC.
Procedure: Measurement by DSC was carried out by a method known to those skilled in the art.
DSC measurement was carried out by a method known to those skilled in the art.
Series [12] can be described thus: SPR (Biacore T200) binding of D12 and ATNLSA1-4_D12 variants to ATP. To be noted: Biacore T200, 15° C., 500 mM NaCl. How it is done:
as §2, §3
Based on the assay result, the affinity of each variant for ATP was calculated as a KD value. […]
It was determined that amino acids substituted at the sites could be included in a library (flexible residues to be introduced into a library).

B1: SMB0002: rabbit B cell cloning antibody binding adenosine and ATP; heavy chain SEQ ID NO: 30, light chain SEQ ID NO: 31 (antibody, listed as Oryctolagus cuniculus)
heavy: CQSVEESGGRLVTPGTPLTLTCTVSGIDLSNYAMGWVRQAPGKGLEWIGIIGADSSTWYPSWVKGRFTISKTSTTVDLKMTSLTTEDTATYFCARGRFVGYTNAFDPWGPGTLVTVSS
light: AQVLTQTPSSVSAAVGGTVTISCQSSQSVWNNNYLSWYQQKPGQPPKLLIFDASTLASGVPSRFSGRGSGTQFTLTISGVQCEDAATYYCHGSYANSGWYDNAFGGGTEVVVK
One may read the Kd as the concentration at which binding is half-saturated. B1: the Kd in series [1] is 59 µM; in series [2], 10 µM; in series [3], 0.015 µM; in series [5] it was 240 µM. Further, in series [4], the “binding to 2′-Adenosine-PEG-Biotin on adding excess amounts of adenosine and ATP” value was “inhibited”.

B2: ATNLSA1-4_D12: ATP/adenosine-binding antibody; heavy-chain variable region SEQ ID NO: 48, light-chain variable region SEQ ID NO: 49 (antibody, listed as Homo sapiens, V domains shown)
VH: QVQLQESGGDLVKPGGFLRLSCAASGFTFNTYTMNWVRQAPGKGLEWLSSISSRSNYINYADSVKGRFTISRDNAKNSLYLQMNSLRAEDTAVYYCARFGRKGDLNWVFDYWGQGTLVTVSS
VL: QSALTQPPSASGSPGQTVTISCTGTSSDVGGYNYVSWYQQHPGKAPKLMIYEVSKRPSGVPDRFSGSKSGNTASLTVSGLQAEDEADYFCSSYAGSNNVVFGGGTKLTVL
In general, Tm refers to the temperature at which the thermal transition is half complete. On to B2, for which the dissociation constant Kd in [6] worked out at 0.25 µM; in [9] it was 1100 µM; in series [12], 8.5 µM. For the same molecule, the “binding to 5′-Adenosine-PEG-biotin” value in [7] is reported as “ability to bind”. Besides, the “binding to ATP-PEG-biotin” value in [8] is “ability to bind”. The “binding to biotin-labeled antigen with ATP as competitor” value in series [10] is recorded as “inhibited in an ATP concentration-dependent manner”. Further, in series [11], the Tm is 74.37 °C.
